Measurements taken from article PMC11757143, “Generation and characterization of OX40-ligand fusion protein that agonizes OX40 on T-Lymphocytes” (Frontiers in Immunology, 2025).

T1: OX40-Fc (Mus musculus, UniProt P47741)
T1 construct: made in house
T1 sequence (P47741 20-211 limits assumed): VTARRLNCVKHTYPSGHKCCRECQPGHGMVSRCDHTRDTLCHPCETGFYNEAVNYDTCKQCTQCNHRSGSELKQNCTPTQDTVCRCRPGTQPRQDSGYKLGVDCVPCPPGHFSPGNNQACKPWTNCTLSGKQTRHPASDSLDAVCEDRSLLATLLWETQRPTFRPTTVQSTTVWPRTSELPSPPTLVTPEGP

B1: Fc-scOX40L: Fusion protein: Fc, PA, single-chain OX40L trimer (three OX40L joined by GGGSGGG linkers), His6; dimer of trimers (protein)
chain: SSSPAKDPPIQRLRGAVTRCEDGQLFISSYKNEYQTMEVQNNSVVIKCDGLYIIYLKGSFFQEVKIDLHFREDHNPISIPMLNDGRRIVFTVVASLAFKDKVYLTVNAPDTLCEHLQINDGELIVVQLTPGYCAPEGSYHSTVNQVPLGGGSGGGSSSPAKDPPIQRLRGAVTRCEDGQLFISSYKNEYQTMEVQNNSVVIKCDGLYIIYLKGSFFQEVKIDLHFREDHNPISIPMLNDGRRIVFTVVASLAFKDKVYLTVNAPDTLCEHLQINDGELIVVQLTPGYCAPEGSYHSTVNQVPLGGGSGGGSSSPAKDPPIQRLRGAVTRCEDGQLFISSYKNEYQTMEVQNNSVVIKCDGLYIIYLKGSFFQEVKIDLHFREDHNPISIPMLNDGRRIVFTVVASLAFKDKVYLTVNAPDTLCEHLQINDGELIVVQLTPGYCAPEGSYHSTVNQVPL
modifications: left off: Fc (human IgG1: hinge, CH2, CH3), N-terminal, kept | PA tag (…), internal (between Fc and the first OX40L), kept | His6, C-terminal, kept
notes: Fusion protein: Fc, PA, single-chain OX40L trimer (three OX40L joined by GGGSGGG linkers), His6; dimer of trimers
B2: scOX40L-Fc: Fusion protein: OX40L, Linker, OX40L, Linker, OX40L, Fc, PA, and His6 (protein)
chain: B1 chain
modifications: left off: Fc (human IgG1: hinge, CH2, CH3), C-terminal, kept | PA tag (…), C-terminal, kept | His6, C-terminal, kept

Legend:
[1] = tested on: antigen-specific CD4+ T cells; assay: Activation-induced marker (AIM) assay on dLN cells from TNP-KLH/CFA-immunized mice; format: in vivo, C57BL/6 mice; settings: 20 µg i.p. on days 1 and 3, KLH 18 hours
Procedure: To perform the activation-induced marker (AIM) assay, a valuable method to detect antigen-specific CD4^+ T cells ([29], [30]), draining lymph node (dLN) cells were initially incubated with IgG from rat serum (14131, Merck) to block nonspecific binding. The following antibodies were used for cell-surface staining: PE/Cyanine7 anti-mouse CD4 (GK1.5, 100421, BioLegend), Alexa Fluor® 488 anti-mouse CD25 (PC61, 102018, BioLegend), and APC anti-mouse CD134 (OX-40) (OX-86, 119413, BioLegend). For Foxp3 staining, cells were fixed and permeabilized with the eBioscience™ Foxp3/Transcription Factor Staining Buffer Set (00-5523-00, Thermo Fisher), then stained with PE Anti-Mo/Ra FOXP3, eBioscience™ (FJK-16s, 12-5773-08, Thermo Fisher). Data were acquired on a FACS Canto II or a Celesta (BD Biosciences, Franklin Lakes, NJ, U.S.A.) and analyzed with BD FACS Diva software version 9 or Flowing software version 2 (Turku Bioscience, Turku, Finland, http://flowingsoftware.btk.fi/).
Groups of C57BL/6 mice from both male and female mice aged between 5 and 15 weeks were immunized subcutaneously at the footpad with 100 µg of 2,4,6-trinitrophenyl-conjugated keyhole limpet hemocyanin (TNP-KLH) emulsified in complete Freund’s adjuvant (CFA) (F5881, Merck) on day 0. […] Cell viability on day 3 was assessed with a 3-(4,5-dimethylthiazol-2-yl)-2,5-diphenyl-tetrazolium (MTT) (M2128, Merck) assay.

OX40-Fc = molecular target: T1, OX40-Fc; parameters: method as in PMID 36450532, PMID 37371066; settings: previous studies; ref [23], [24]; cited from earlier work
[2] = tested on: antigen-specific T cell responses of draining lymph node cells; assay: Antigen recall responses of dLN cells from TNP-KLH/CFA-immunized mice (cytokine ELISA, MTT proliferation); format: in vivo, C57BL/6 mice; settings: for antigen-specific T cell responses (recall IFN-γ, IL-17, IL-4 production and proliferation of dLN cells): 20 µg i.p. on days 1 and 3, TNP-KLH/CFA day 0, dLN day 7, KLH recall 3 days
Excerpt: The following reagents were used for the measurement of cytokines from T cells: anti-IL-2 (JES6-1A12, 503701, BioLegend, San Diego, CA, U.S.A.) capture antibody, biotin-anti-IL-2 (JES6-5H4, 503803, BioLegend) detection antibody, anti-IFN-γ (R4-6A2, 505702, BioLegend) capture antibody, biotin-anti-IFN-γ (XMG1.2, 505804, BioLegend) detection antibody, anti-IL-4 (11B11, 504101, BioLegend) capture antibody, biotin-anti-IL-4 (BVD6-24G2, 504201, BioLegend) detection antibody, anti-IL-17A (TC11-18H10.1, 506901, BioLegend) capture antibody, biotin-anti-IL-17A (TC11-8H4, 507001, BioLegend) detection antibody, HRP streptavidin (405210, BioLegend), and 3,3’,5,5’-tetramethylbenzidine (TMB, 421101, BioLegend). The absorbance was measured at 450 nm or 620 nm using a FilterMax F5 (Molecular Devices, San Jose, CA, U.S.A.).
Groups of C57BL/6 mice from both male and female mice aged between 5 and 15 weeks were immunized subcutaneously at the footpad with 100 µg of 2,4,6-trinitrophenyl-conjugated keyhole limpet hemocyanin (TNP-KLH) emulsified in complete Freund’s adjuvant (CFA) (F5881, Merck) on day 0. Recombinant proteins in PBS were injected intraperitoneally on days 1 and 3. On day 7, pooled dLN cells were plated in 200 µL volumes in 96-well plates in triplicate in the presence or absence of KLH. Cells were harvested at 18 hours for the AIM assay. Culture supernatants were harvested at 72 hours for cytokine ELISA. Cell viability on day 3 was assessed with a 3-(4,5-dimethylthiazol-2-yl)-2,5-diphenyl-tetrazolium (MTT) (M2128, Merck) assay.

Molecule	frequency of OX40+CD25+Foxp3+CD4+ cells (AIM assay) [1]	frequency of OX40+CD25+Foxp3-CD4+ cells (AIM assay) ([1]; compared to control (PBS) or OX86)	specific interaction with OX40 (OX40-Fc)	antigen-specific T cell responses (recall IFN-γ, IL-17, IL-4 production and proliferation of dLN cells) [2]	induction of IL-4-producing cells ([2]; TNP-KLH/CFA-immunized mice, Figures 7, 9)
B1	significantly enhanced frequency	significantly increased frequency	specifically interact with OX40	elicited stronger antigen-specific T cell responses than Fc-MBL-OX40L (B) and scOX40L-Fc (D)	promoted the induction of IL-4-producing cells
B2				triggered significantly higher T cell responses compared to the None (PBS) control group	
